According to patent publication US20070014810A1, “Inducing cellular immune responses to human papillomavirus using peptide and nucleic acid compositions” (priority 2003, published 2007):

How the values were obtained:
[1] = biological target: HLA-A*0101 (human); test: inhibition of 125I-labelled probe peptide binding to purified HLA, gel filtration; standard peptide
[2] = biological target: HLA-A*2902 (human); test: as above
[3] = biological target: HLA-A*2902 (human); test: inhibition of 125I-labelled probe peptide binding to purified HLA, gel filtration; standard peptide (allele listed again under supertype A24)
[4] = biological target: HLA-A*3002 (human); test: inhibition of 125I-labelled probe peptide binding to purified HLA, gel filtration; standard peptide
[5] = biological target: HLA-A*3002 (human); test: inhibition of 125I-labelled probe peptide binding to purified HLA, gel filtration; standard peptide (allele listed again under supertype A24)
[6] = biological target: T1, HLA-DRB1*0901 (human)
T1 chain 1: not shown
T1 chain 2: not shown

## YTAVVPLVY (modifications not checked)
[1]
  IC50: 5 nM
[2]
  IC50: 5 nM
[3]
  IC50: 5 nM

## RISGVDRYY (modifications not checked)
[4]
  IC50: 3 nM
[5]
  IC50: 3 nM

## AKFVAAWTLKAAA (modifications not checked)
[6]
  IC50: 75 nM
